# According to the DeepSol protein solubility set:
# Assay: soluble on expression in E. coli; label from the status in PepcDB or PDB records
row,Sequence,soluble on expression in E. coli
1,MAHHHHHHMQMRRDALGNGKALEFAKELSLAYKQVIQATQHIGKQRQALTGCTDLSVKTREWAAAEHDIAGALEKYGAAPYWVEQRGWRPGRLQSFEAAHSRASSGTEVSYLCSRLRGYVKAAFTAHVTKPPKLNASEVDVAELLTFFTGSGDGALVVEVALAKFFVVENMHVRAPELWVMNYLLHCYGVEEGIMLAHEADVVDGGFKQQGGGAFEEQFLIQKNIWAVSQVLVPHCYAVTRCDEATAKAGVEACVRCEGTEGQGTEGAFPTWPGTPPASLPPAYRLARSVNDYGKEAGEDKTSRIIGELDGVIYDASARQVLLVLEAKQNIDVCKAFKQKERLYNALDATRKTLSQASQGAALTAVQLSAENETKTATTTAAGRNATPAAEAACAASTKLHTEPVVLRFFVTPTTAAEAARENFSVNGCSLVTGVGAEPAANFQDMRNSGDMASAAAPPVRSKAAAARLATAGNPFFTQDNFAAFFGATASAVQGDSTAPSPTPTRSDSMTPRHLGRDQRWIYLTSLSTGNSPGARTTVPAPGGTIHMVELTLVKTACNFVAEAYDSYFQISTLPPTATPALQSLVSAMRVCSAYAPETEPMALFHLFLELPPQECISARAETAAVSRSDPCEYVLHLFRHDVRCKDGAAALEQVWLRENFIDGLVLSEHSFI,not soluble
2,MAHHHHHHMQSSISQEKLQLMQKNFNLVDLNKDGKIAAEEFKTLLRLLGQTKTEKEMDEMVDKHFEDAPIGEEQQQDAAEAADKGGANEGTPSTAKQLGGQKNTAKTAPNHDRIKNLIAKLNNSKDEDKKKNSPNGQINRTGDVYAKNELINKKKKHINFETFLRIFLETYEEPLSVDELITSFEFFDKEKSGYLDEEKVRFILKNSEERLADEDMKLFLNSLNLRDKDKIDYVMLAKRLKNVA,not soluble
3,MAHHHHHHMRGTPLREGHHSPTQSVRRFFSDYQHVQEEKVNLPRLKLRGLPFDASEEEIKTFFKNFQLAKVGYPIHIIRGVKNKPTGQAHVYFDDEEEARKACETLNRKFLRNRYIEIYTDYIFNHNLTLVKEHVTTLMRDRYRKDNQ,not soluble
4,MAHHHHHHMRIHHAFFRQSCRIMRGIDSARSTPTFVNGTDGMGTIHMLFSKRTHSNTTHSNADSAYMPGSNLHVEHPIVQLPARSLWCKQYPLDISLVRRGEFNDMIGRVRAARHYYQYPSLCAPKIGWNVQMFTLFDGTVFINPINLDALEVEEIAKQKSITFVEAEALWMEKKRREGKTCFAWEPCASCCFLLHFIERPSTVRVRAIAEDGNPFEVTLDKMRARMALHELDHLNGILFTRRIPDTSHVVPLEGFSTMSEWPDDYPSLEARSTFLYTTFTPPYTFITDSVEDAQLLDRKFEDGIYPGCEHDRRMRIESAAFEELQRAQWRMEKTREENSEEYDGVEGEVDEEDQEHCEETAAGGVAVKDNAPQ,not soluble
5,MAHHHHHHMRILHKLGKNVFQTARRSFSLVTKQAHDFTAQGLNKNNEIINVQLSSYIGKKYCCLLFYPLNYTFVCPTEIIEFNKHVKSFEEKNVELLGISVDSVYSHLAWKNMPIEKGGIGNVNFTLVSDLNKEISKMYNVLYENSFALRGLFIIDLQGKVRHQTVNDLPLGRSVDEVLRTIDSIIHVDKTGDVCPINWKKGAKSFQPTNDSLLNYLNTEVKKE,soluble
6,MAHHHHHHMRPHTPAKVATTASDGATTTKTTSHPVLLGCGLNWASFVASHPFEVKELTSVLVGDGSDDDGVPEERDALVQAQLPVASVVTSGATLERVFTEAMVCASARAEVARKVQHIATVWCLHPSSEYVATLCWPMEGGESASTTTAVLKVQTEGGRAPLDLRAVSLHVVDRGSLVFHPEFTRCILAQGAERFMYYVPPNPLEATTALPFMRGLWYNGLFSLLELLRIGPQHVVMLFVLPNGDTRYTLDLAPESPAVPAPSSTHQQGSGALGSAASRNATASLYPWRRQSKVRRVIRSGAYVVVVRDDTAGVVESLQRACSYHGQNKRSTWLNDIFIHLMGQCSRRDILCSADAAASQPAEADKANDVRLLCIELVEKATGEVMAGCCGMAVGCAYHDYTMYTLRQTKDGLGTFLTKLIGEALQRCGYTLWYWGFCVEYMRHFERHFGAVDMPRDVFYRRWSAARDAAPECSIDAYLRSHKGMVPYYEGTSALVKSKP,not soluble
7,MAHHHHHHMRVASFCLPLHLLSFGAQARGCFRHSTGGSSSVFCAARPFRLSHTMAASACSSAVHLDNFRLLAAGHDATHAAPSSAPLTAPISFSLTFHFQRYDGADFESFISSLGVSVDFVADVASEQTTLTLLPLTPVSGPWARRDTAAANGAFLMAASASDSSTSSSDYAAGAPLDGAAGAAPGMMYQLRVYLSDFRALEKVQLKHLLQVSMMHVRLAHLGTSDGVGNSDSSDPRTEERSVAAWNVIWRVRRNPQNEQELIRTVLDPLA,not soluble
8,MAHHHHHHMRVLSLLSALCLVSTCRGHRNLFARNNYLQYLRSQNFMQEKPKFQKLNQNYSEDLNEFDNYEDDELDAENVEATSKERVTQKSGTSSSSSENKLEFKNIEKELNNMGEILHEEKDNLLLMGGGRECSVSDKGTLDVSLNSGDIFNLTKYTVEMSSSGILIRDTQNSNVVKEIAFDTVKLPIETIEETRECWKIRSHKETFLFCERSKEARDRWITNMLKALFCYNTNNLTIDEGVQTGLSSKVDIPKESTVDARIAASLKDEPNGSGDNSSHGRAKRKGNNNITISNLKNDKPEIVVN,not soluble
9,MAHHHHHHMSAHEEEIDMILSMFSDECERYEGTSDSIIVHLPFHFELQVTLPPHGYPDASYPKLYLLSSPNAQLASAFSQAVYRRMRDEISLGIPMLALLIPLAQSVAEELKDLKERAEKARQDEAVERMSELQRKEEHRRETGIAIWSGQAIVDRRSRFVAHMARVHSMDEVREVVGHLRSVKSIACAAHPTIYAYRFTDANGVLQKDSDDDGESGASIKMMFLLDHLQIDGYVVVVTRWWGGILLGPDRFKHIMEVTKNLLLTIPEREKEMAASAKRKSLR,soluble
10,MAHHHHHHMSENVAAAQRRWQAGMHEVEAYLNALDSARADSAKAGLYHRAQQCMQHMEKIIRLLAKRIAREANIMAERARQALTEQQRLLQRNLRKRWKTKMLVYEENASAMLAAAEQHHYAERVREDERAHEELRSVRAGGSMAHSRSSKVQHLQSEIQLYLRQHRYREAERAQAQLSRFEKQEQQSQQRNLTHLQEQRLQAMRMKQEEQLAKMKAAYQQEKQEITRTCRAELDAMTRQHEVALQAVEERRLFLHERVQAILKAYNDADTLDPRAAGQKLIRISQLLWTSREVQQSSKRI,not soluble
11,MAHHHHHHMSFTEWPVSRVRQEFVDYFKKQGHTFVPSSPVCPHDDPTLLFINAGMNQFKALFLGTADPNTDFGRLKRAANSQMCIRAGGKHNDLEDVGRDTYHHTFFEMLGSWSFGDYFKKEAIQWAWELLTEVYKLPKDQLYVTYFEGDESNGLDPDLEAKELWGQLLPESQIVPGNAKDNFWEMGDTGPCGPCSEVHFDRIGRRNAASLVNKDDPMVVEIWNLVFMQFERRAGGFLTPLPQKHIDTGMGLERLTSILQGVKSNYDTDAWIPLFEAIQTATGYPKSYAEIRNDPDSDALVAYRVVADHIRCLTSAVGDGVMPDSVGRGFVLRRIIRRAVRYGVQFLGAKPGFFTQLVDSVCTSLGPFFPHLKEPRNIQRIKAVLADEEQSFAKTWEMGLKHFNHAVNECRANSSKVISGSEAFVLHDRYGFPVDLTCLLAEKDGMTVDLEGFNTEMKESKVSAGRVAATKTFIDAYQLEELKTRGIPQTNDAAKYVWEDYTGDVLAIFDKKNSKFISLLEPGNDLGAEGVGIILSTTNFYAESGGQVYDTGRLVAASDSVFEGRRRTTWPATWCTWATSASTLPPRSPRLRWCSCRWTTSAACRSRQTIPRPTS,not soluble
12,MAHHHHHHMSHYLLVTFTFNCPEIRILGPIKEQTIEKLNDVIPNATTTSRSNRTALPKFEYLPNPNHWYIKLDRQFCDEDGKSHLMVLLLDALSEEGSWRLVSSFVTKEPSGTGSKEGTETHTLFLNKLLAEDS,soluble
13,MAHHHHHHMSKKRKSYENDEDVYDNKRNKKNVASSIDSYGRKVWDKEYYQKKVDEKVENDEDELILKLLPDLKKKSKLEPPPPSERKLLEERKENLLLEKNLGKVQILTQKTPKNEQGGYYCKICDCVLKDSQTYLDHINGKNHNRMLGYSMKVKKVTLDDVKKRLSLLKDKKQNKTEDVEKDPYEDAKKNLKDMQEDEERRIQKRKEKKMLKKLEKEKKKNENENENNDEESDNMNMMFKEMGLPTSFV,soluble
